Reference: PMC5486983

Substrate: O=C(O)c1c[nH]c2ccccc12
Assay: LC-MS of adenylate
Format: biochemical, Caenorhabditis elegans
Conditions: with ATP and coenzyme A; adenylate formed, no CoA ester

B1: ACS-7 (Caenorhabditis elegans) (protein)
chain: MIFHGEQLENHDKPVHEVLLERFKVHQEKDPDNVAFVTAENEDDSLGFQQLGKKVLQISEWFVENGYKKGDVFLLASYNNWRCFAAALGAWRAGLIVSAAASQFTSFEMNYQIEDSQSQVILVDKHTLPVVQEACKNLKFVKQIISISANPPSPVIKFDVLTSRLVRNLKMPLIDPKNDIVFLPYSSGTTGKPKGVMISHLNFSMMLESSLRFFDANAKAIGLPPDFVLPYDLHFLPMYHAMGMFRTLLTSYRGTTQIMFTKFDMELMLKNIEKYSIMVLSLVPAIAVRMLNSPLLQKYDVSSLVSVTVGSAPFPESASKKLKQLLPNVNIVQGYGMTELTFATHLQSPGSPDGSVGRLVPGTSMKVKKEDGTLCGPHEIGELWIKGPQMMKGYWKKEQQTNELLDEHGFMRTGDIVYFDKNGETFICDRIKELIKVNAKQVAPAELESVILEHDDVADVCVFGVDDASSGERPVACVVSKRGRDMETSKAIMKHINQKLARYKHIKEIEFVSEIMRTGTGKLLRRAMKKAFLDAKKAKL
Protein B1 has a Km of 270 ± 90 µM.
